A word on the Km: it is the substrate concentration at which the rate is half of its maximum. For orientation: kcat means the maximal rate divided by the concentration of active sites.

Results on 2 proteins are retold here after publication doi:10.1101/2024.05.23.595515v1.

Common to all, as to assay: purified protein
Substrate in data set [1]: CN(C)c1ncnc2c1ncn2[C@@H]1O[C@H](CO)[C@@H](O)[C@H]1O
Conditions: ATP 1 mM, 37 °C, HEPES, NaCl, MgCl2, CaCl2.

Substrate in data set [2]: CNc1ncnc2c1ncn2[C@@H]1O[C@H](CO)[C@@H](O)[C@H]1O
The note with it: ATP 1 mM, 37 °C, HEPES, NaCl, MgCl2, CaCl2.

Substrate in data set [3]: CC(C)=CCNc1ncnc2c1ncn2[C@@H]1O[C@H](CO)[C@@H](O)[C@H]1O
The note with it: ATP 1 mM, 37 °C, HEPES, NaCl, MgCl2, CaCl2.

Substrate in data set [4]: CNc1ncnc2c1ncn2[C@@H]1O[C@H](COP(=O)(O)O)[C@@H](O)[C@H]1O
Conditions: 37 °C, HEPES, NaCl, MgCl2, 2-mercaptoethanol.

Substrate in data set [5]: CC(C)=CCNc1ncnc2c1ncn2[C@@H]1O[C@H](COP(=O)(O)O)[C@@H](O)[C@H]1O
Conditions: 37 °C, HEPES, NaCl, MgCl2, 2-mercaptoethanol.

Substrate in data set [6]: CN(C)c1ncnc2c1ncn2[C@@H]1O[C@H](COP(=O)(O)O)[C@@H](O)[C@H]1O
The note with it: 37 °C, HEPES, NaCl, MgCl2, 2-mercaptoethanol.

B1: ADK (human adenosine kinase) (Homo sapiens) (protein)
chain: MTSVRENILFGMGNPLLDISAVVDKDFLDKYSLKPNDQILAEDKHKELFDELVKKFKVEYHAGGSTQNSIKVAQWMIQQPHKAATFFGCIGIDKFGEILKRKAAEAHVDAHYYEQNEQPTGTCAACITGDNRSLIANLAAANCYKKEKHLDLEKNWMLVEKARVCYIAGFFLTVSPESVLKVAHHASENNRIFTLNLSAPFISQFYKESLMKVMPYVDILFGNETEAATFAREQGFETKDIKEIAKKTQALPKMNSKRQRIVIFTQGRDDTIMATESEVTAFAVLDQDQKEIIDTNGAGDAFVGGFLSQLVSDKPLTECIRAGHYAASIIIRRTGCTFPEKPDFH
B1: the results for the Km in the data set “purified protein [1]”, in “purified protein [2]” and in the data set “purified protein [3]” were 6.1 ± 0.31 µM, 15 ± 1.8 µM and 10 ± 1.0 µM, respectively. Also, the kcat in the data set “purified protein [1]” was determined as 0.27 ± 0.0024 s⁻¹; in “purified protein [2]” it was 0.28 ± 0.0063 s⁻¹; in “purified protein [3]”, 0.18 ± 0.018 s⁻¹.

B2: ADAL (hADAL, adenosine deaminase-like) (Homo sapiens) (protein)
chain: MIEAEEQQPCKTDFYSELPKVELHAHLNGSISSHTMKKLIAQKPDLKIHDQMTVIDKGKKRTLEECFQMFQTIHQLTSSPEDILMVTKDVIKEFADDGVKYLELRSTPRRENATGMTKKTYVESILEGIKQSKQENLDIDVRYLIAVDRRGGPLVAKETVKLAEEFFLSTEGTVLGLDLSGDPTVGQAKDFLEPLLEAKKAGLKLALHLSEIPNQKKETQILLDLLPDRIGHGTFLNSGEGGSLDLVDFVRQHRIPLELCLTSNVKSQTVPSYDQHHFGFWYSIAHPSVICTDDKGVFATHLSQEYQLAAETFNLTQSQVWDLSYESINYIFASDSTRSELRKKWNHLKPRVLHI
For the protein B2, the Km is reported as 47 ± 1.1 µM in “purified protein [4]”, 35 ± 1.4 µM in the data set “purified protein [5]” and 65 ± 1.7 µM in the data set “purified protein [6]”. In addition, the kcat is 2.4 ± 0.068 s⁻¹ in the data set “purified protein [4]”, 1.9 ± 0.066 s⁻¹ in “purified protein [5]” and 2.6 ± 0.036 s⁻¹ in the data set “purified protein [6]”.
